# Values quoted from earlier work, collected in patent publication US7759315B2, “Treatment of inflammatory conditions of the intestine” (CSL Behring AG, priority 2005, dated 2010).
# Non-standard residues stand in square brackets, D forms with d. No end group written: not given here. Aib = CC(C)(N)C(=O)O
# How the values were obtained:
# LCAT = target: T1, LCAT (Homo sapiens, UniProt P04180)
# T1 sequence (P04180 25-440): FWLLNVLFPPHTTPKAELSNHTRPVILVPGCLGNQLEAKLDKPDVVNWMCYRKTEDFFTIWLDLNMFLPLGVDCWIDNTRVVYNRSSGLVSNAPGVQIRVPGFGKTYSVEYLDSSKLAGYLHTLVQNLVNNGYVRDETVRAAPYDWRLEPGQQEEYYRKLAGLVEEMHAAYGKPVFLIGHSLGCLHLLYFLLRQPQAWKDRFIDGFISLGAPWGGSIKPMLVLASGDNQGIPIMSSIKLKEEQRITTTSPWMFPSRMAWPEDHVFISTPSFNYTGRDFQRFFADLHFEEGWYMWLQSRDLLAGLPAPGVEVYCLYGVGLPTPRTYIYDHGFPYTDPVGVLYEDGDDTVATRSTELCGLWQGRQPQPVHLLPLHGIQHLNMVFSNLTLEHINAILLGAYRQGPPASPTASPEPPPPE
# [1] = percent helicity; for He (%) free: free peptide; for He (%): micelles
Substance,Crohn's disease activity index (CDAI) (Crohn's disease patients),histopathological and endoscopic inflammation (Crohn's disease patients),ACTIVITY (%) LCAT (LCAT) [%],He (%) SUVs ([1]; SUVs) [%],He (%) free [1] [%],He (%) [1]
Infliximab,significant reduction,attenuation,,,,
PVLDEFREKLNEXLEALKQKLK (PVLDEFREKLNE[Aib]LEALKQKLK; not fully specified (C-terminus)) [Peptide 45],,,24,25,24,84%
GVLELFENLLERLLDALQKKLK [Peptide 145],,,100,,,51%
PVLDLFRELLEELLKALKKKLK [Peptide 39],,,25,,,69%
PVLDEFREKLNEPLEALKQKLK [Peptide 113],,,0,,,22%
PVLELFENLLERLWDALQKKLK [Peptide 163],,,26,,,53%
pVLELFENLLERLLDALQKKLK ([dP]VLELFENLLERLLDALQKKLK; not fully specified (C-terminus); printed as pVLELFENLLERLLDALQKKLK) [Peptide 144],,,111,,89,88%
PVLDLFREWLNELLEALKQKLK [Peptide 37],,,29,,,75%
PVLDLFRELLNEXLWALKQKLK (PVLDLFRELLNE[Aib]LWALKQKLK; not fully specified (C-terminus)) [Peptide 72],,,11,,,sp
~VLDLFRELLNELLEALKQKLK [Peptide 67],,,14,,,90%
PVLDLFRELLEELKQKLK [Peptide 210],,,46,,,63%
P~~~~~~~LLNELLEALKQKLK (PLLNELLEALKQKLK) [Peptide 104],,,1,,,49%
PLLELLKELLQELLEALKQKLK [Peptide 36],,,31,,,100%
PVLDLFRELLNEWLEALKQKLK [Peptide 54],,,19,,,71%
pvldlfrellneXlealkgklk ([dP][dV][dL][dD][dL][dF][dR][dE][dL][dL][dN][dE][Aib][dL][dE][dA][dL][dK][dQ][dK][dL][dK]) [Peptide 96],,,5,,,85%
"PVLELFRELLEELKQKLK* (not fully specified (N-terminus, C-terminus); printed as PVLELFRELLEELKQKLK*) [Peptide 194]",,,88,,,93%
pllellkellqellealkqklk ([dP][dL][dL][dE][dL][dL][dK][dE][dL][dL][dQ][dE][dL][dL][dE][dA][dL][dK][dQ][dK][dL][dK]; not fully specified (C-terminus); printed as pllellkellqellealkqklk) [Peptide 87],,,7,,,100%
